According to patent US20210171598A1, “PEPTIDE HORMONE WITH ONE OR MORE O-GLYCANS” (priority 2017, published 2021):
No end group written: not given here. *: point of attachment. diST = diST O-glycan, CC(=O)N[C@@H]1[C@@H](O[C@@H]2O[C@H](CO)[C@H](O)[C@H](O[C@]3(C(=O)O)C[C@H](O)[C@@H](NC(C)=O)[C@H]([C@H](O)[C@H](O)CO)O3)[C@H]2O)[C@@H](O)[C@@H](CO[C@]2(C(=O)O)C[C@H](O)[C@@H](NC(C)=O)[C@H]([C@H](O)[C@H](O)CO)O2)O[C@@H]1*; code T = T O-glycan (Galβ1-3GalNAc), CC(=O)N[C@@H]1[C@@H](O[C@@H]2O[C@H](CO)[C@H](O)[C@H](O)[C@H]2O)[C@@H](O)[C@@H](CO)O[C@@H]1*; ST = sialylated T O-glycan

T1: NPR-A receptor (UniProt P16066 33-1061, limits assumed)
T1 sequence (looked up): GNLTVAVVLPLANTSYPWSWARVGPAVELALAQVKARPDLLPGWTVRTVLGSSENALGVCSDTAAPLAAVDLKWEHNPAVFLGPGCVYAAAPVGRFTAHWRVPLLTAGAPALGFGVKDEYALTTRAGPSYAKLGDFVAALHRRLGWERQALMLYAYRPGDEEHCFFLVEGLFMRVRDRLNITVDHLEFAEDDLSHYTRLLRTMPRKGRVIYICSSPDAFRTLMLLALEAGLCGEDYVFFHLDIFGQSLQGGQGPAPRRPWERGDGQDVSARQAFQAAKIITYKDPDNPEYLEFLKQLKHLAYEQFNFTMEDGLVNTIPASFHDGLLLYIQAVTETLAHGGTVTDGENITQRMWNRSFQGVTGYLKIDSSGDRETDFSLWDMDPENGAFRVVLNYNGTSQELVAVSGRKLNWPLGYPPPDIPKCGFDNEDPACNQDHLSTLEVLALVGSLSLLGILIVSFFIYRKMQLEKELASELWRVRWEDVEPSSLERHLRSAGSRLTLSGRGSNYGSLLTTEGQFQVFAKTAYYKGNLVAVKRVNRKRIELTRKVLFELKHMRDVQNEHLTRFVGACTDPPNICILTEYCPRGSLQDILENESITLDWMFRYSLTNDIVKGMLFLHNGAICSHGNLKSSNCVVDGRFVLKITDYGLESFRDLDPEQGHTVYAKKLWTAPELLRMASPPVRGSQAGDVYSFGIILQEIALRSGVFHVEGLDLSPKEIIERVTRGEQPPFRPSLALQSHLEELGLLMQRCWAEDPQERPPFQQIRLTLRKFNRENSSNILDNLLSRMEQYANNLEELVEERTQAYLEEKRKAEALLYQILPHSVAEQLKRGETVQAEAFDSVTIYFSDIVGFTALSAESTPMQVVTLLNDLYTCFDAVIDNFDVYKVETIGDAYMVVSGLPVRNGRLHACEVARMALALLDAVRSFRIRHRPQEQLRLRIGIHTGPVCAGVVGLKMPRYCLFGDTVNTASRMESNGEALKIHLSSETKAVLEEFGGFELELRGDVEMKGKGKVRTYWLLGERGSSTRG


Assays:
[1] = biological target: neprilysin (NEP) (Homo sapiens, UniProt P08473); assay: In vitro degradation by neprilysin, MALDI-TOF time course; conditions: 37° C., MALDI-TOF
Experimental: (§1) Many peptide hormones are destined for endocrine circulation where they are rapidly degraded with half-lives reaching only a few minutes^6-8.
(§2) For enzymatic degradation assays using either NEP or DPP-IV (R&D systems, UK), an enzyme titration was carried out to ensure full degradation within one hour of reaction time.
(§3) MALDI-TOF-MS was performed on a Bruker Autoflex instrument (Bruker Daltonik GmbH, Bremen, Germany) by mixing the quenched aliquots with a saturated solution of α-Cyano-4-hydroxycinnamic acid in ACN/H2O/TFA (70:30:0.1) at a ratio 1:1 on a target steel plate and mass-spectra were acquired in linear mode.
Reactions were performed in 50 mM Tris, 0.05% Brij-35, pH 9 (Neprilysin), or 50 mM Tris, 20 mM NaCl, pH 7.5 (IDE) and incubated at 37° C.

[2] = biological target: dipeptidyl peptidase IV (DPP-IV) (Homo sapiens, UniProt P27487); assay: In vitro degradation by DPP-IV, MALDI-TOF time course
Experimental: as §1, §2, §3

[3] = test system: male Sprague Dawley rats; assay: Acute cardiovascular and renal actions of i.v. infusion in anesthetized rats; assay type: in vivo; conditions: rat
Text: The protocol is outlined in FIG. 9A.
Rats were then subjected to vessel and bladder cannulation for peptide infusion, BP measurement, blood sampling and urine collection. A polyethylene (PE)-5G tube catheter was placed into the jugular vein for inulin, peptide intravenous infusion. The carotid artery was cannulated with a PE-50 tube catheter for BP measurement (Sonometrics, London, Ontario, Canada) and blood sampling. The bladder was accessed and cannulated with a PE-50 tube catheter for passive urine collection. After completion of the above procedural set up, a 45 min equilibration period was performed that included continuous IV inulin and saline infusion. After the 45 min equilibration period, baseline (Time==Q min) parameters were recorded and one blood sampling (0.7 ml) was performed. The inulin and saline infusion was replaced by a continuous intravenously (i.v.) infusion of equimolar ANP-Ser19/ST or ANP-Ser25/ST for 60 min. The infusion rate was weight adjusted and equals weight*0.7/6000 ml/min. After 60 min infusion (Time=60 min), another blood sampling (0.7 ml) was conducted. […] Urine was collected at the end of the infusion (Time=60 min) and the study (Time=90 min). Urinary sodium was measured with pHOx Ultra (Nova Biomedical, Waltham, Mass.). Urine flow (UV) and urinary sodium excretion (UNaV) were calculated as urine volume or sodium clearance per min, Inulin concentrations were measured with enthrone method and inulin clearance was used for GFR quantification. Urinary cGMP and ANP excretion rate was calculated based on raw values obtained in the urine and UV.

[4] = biological target: T1, NPR-A receptor; assay: cell-based or functional assay
[5] = 600 pmol/kg/min i.v., 60 minutes infusion

Chain of dipeptidyl peptidase IV (DPP-IV) (P27487 whole entry): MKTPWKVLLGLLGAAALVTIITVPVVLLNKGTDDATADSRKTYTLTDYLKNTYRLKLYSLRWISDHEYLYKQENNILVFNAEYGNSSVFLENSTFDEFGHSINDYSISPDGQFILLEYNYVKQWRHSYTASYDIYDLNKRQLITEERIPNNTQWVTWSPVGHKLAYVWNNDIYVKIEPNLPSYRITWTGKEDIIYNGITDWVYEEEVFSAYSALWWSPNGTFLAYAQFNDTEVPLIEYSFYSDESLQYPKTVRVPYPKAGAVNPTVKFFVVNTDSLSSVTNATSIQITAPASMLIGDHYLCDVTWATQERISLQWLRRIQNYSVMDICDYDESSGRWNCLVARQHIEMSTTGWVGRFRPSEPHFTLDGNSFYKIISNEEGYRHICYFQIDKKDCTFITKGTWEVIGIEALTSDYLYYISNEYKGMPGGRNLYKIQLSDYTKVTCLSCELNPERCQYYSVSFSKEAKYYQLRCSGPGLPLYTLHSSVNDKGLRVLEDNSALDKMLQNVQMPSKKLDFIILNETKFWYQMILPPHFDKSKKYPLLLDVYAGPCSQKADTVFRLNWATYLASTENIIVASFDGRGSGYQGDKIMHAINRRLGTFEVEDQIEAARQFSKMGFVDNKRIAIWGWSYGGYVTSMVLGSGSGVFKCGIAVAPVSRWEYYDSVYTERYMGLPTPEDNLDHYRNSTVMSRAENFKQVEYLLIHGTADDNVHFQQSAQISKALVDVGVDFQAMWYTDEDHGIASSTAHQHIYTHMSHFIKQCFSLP
Chain of neprilysin (NEP) (P08473 whole entry): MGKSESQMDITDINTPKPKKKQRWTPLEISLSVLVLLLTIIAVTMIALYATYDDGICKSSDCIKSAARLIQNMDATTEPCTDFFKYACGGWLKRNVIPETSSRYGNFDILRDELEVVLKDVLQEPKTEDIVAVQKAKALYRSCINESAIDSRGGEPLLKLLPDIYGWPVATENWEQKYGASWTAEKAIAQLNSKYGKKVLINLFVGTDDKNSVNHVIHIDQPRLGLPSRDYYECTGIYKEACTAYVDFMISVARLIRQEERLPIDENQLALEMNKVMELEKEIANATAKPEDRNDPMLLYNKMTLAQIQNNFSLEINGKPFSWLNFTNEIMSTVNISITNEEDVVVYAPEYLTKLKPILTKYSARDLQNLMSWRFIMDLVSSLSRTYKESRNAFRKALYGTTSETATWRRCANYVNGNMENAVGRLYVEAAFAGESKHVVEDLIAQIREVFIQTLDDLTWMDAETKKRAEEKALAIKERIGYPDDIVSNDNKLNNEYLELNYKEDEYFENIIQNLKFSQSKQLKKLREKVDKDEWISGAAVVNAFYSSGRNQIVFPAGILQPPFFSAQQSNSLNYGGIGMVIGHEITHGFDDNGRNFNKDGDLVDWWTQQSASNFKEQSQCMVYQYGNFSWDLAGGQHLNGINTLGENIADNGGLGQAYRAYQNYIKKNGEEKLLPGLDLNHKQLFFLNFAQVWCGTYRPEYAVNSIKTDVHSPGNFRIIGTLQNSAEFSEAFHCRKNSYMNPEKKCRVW

| Molecule | increase in efficacy, cGMP generated [4] [%] | potency, cGMP generated (HTRF) [4] [nM] | reduction in efficacy, cGMP generated [4] [%] | other results |
| --- | --- | --- | --- | --- |
| CC[C@H](C)[C@H](NC(=O)[C@H](Cc1ccccc1)NC(=O)[C@H](CCC(=O)O)NC(=O)[C@H](CCCCN)NC(=O)[C@H](C)NC(=O)[C@H](C)NC(=O)[C@H](CCC(N)=O)NC(=O)CNC(=O)[C@H](CCC(=O)O)NC(=O)[C@H](CC(C)C)NC(=O)[C@H](Cc1ccc(O)cc1)NC(=O)[C@H](CO)NC(=O)[C@H](CO)NC(=O)[C@@H](NC(=O)[C@H](CC(=O)O)NC(=O)[C@H](CO)NC(=O)[C@@H](NC(=O)[C@H](Cc1ccccc1)NC(=O)[C@@H](NC(=O)CNC(=O)[C@H](CCC(=O)O)NC(=O)[C@H](C)NC(=O)[C@@H](N)Cc1c[nH]cn1)[C@@H](C)O)[C@@H](C)O[C@H]1O[C@H](CO)[C@H](O)[C@H](O[C@@H]2O[C@H](CO)[C@H](O)[C@H](O[C@]3(C(=O)O)C[C@H](O)[C@@H](NC(C)=O)[C@H]([C@H](O)[C@H](O)CO)O3)[C@H]2O)[C@H]1NC(C)=O)C(C)C)C(=O)N[C@@H](C)C(=O)N[C@@H](Cc1c[nH]c2ccccc12)C(=O)N[C@@H](CC(C)C)C(=O)N[C@H](C(=O)N[C@@H](CCCCN)C(=O)NCC(=O)N[C@@H](CCCNC(=N)N)C(N)=O)C(C)C [GLP-1-Thr7/ST] |  |  |  | remained (completely) intact after incubation with NEP [1]: 60 min; remained fully intact after/until incubation with DPP-IV [2]: 120 min |
| CC[C@H](C)[C@H](NC(=O)[C@H](CO)NC(=O)[C@H](CC(N)=O)NC(=O)[C@H](CC(C)C)NC(=O)[C@H](Cc1ccc(O)cc1)NC(=O)[C@H](CCCCN)NC(=O)[C@H](CCCCN)NC(=O)[C@@H](NC(=O)[C@H](C)NC(=O)[C@H](CCSC)NC(=O)[C@H](CCC(N)=O)NC(=O)[C@H](CCCCN)NC(=O)[C@H](CCCNC(=N)N)NC(=O)[C@H](CC(C)C)NC(=O)[C@H](CCCNC(=N)N)NC(=O)[C@@H](NC(=O)[C@H](Cc1ccc(O)cc1)NC(=O)[C@H](CC(N)=O)NC(=O)[C@H](CC(=O)O)NC(=O)[C@@H](NC(=O)[C@H](Cc1ccccc1)NC(=O)[C@@H](NC(=O)[C@H](C)NC(=O)[C@H](CC(=O)O)NC(=O)[C@H](CO)NC(=O)[C@@H](N)Cc1c[nH]cn1)C(C)C)[C@@H](C)O[C@H]1O[C@H](CO)[C@H](O)[C@H](O[C@@H]2O[C@H](CO)[C@H](O)[C@H](O[C@]3(C(=O)O)C[C@H](O)[C@@H](NC(C)=O)[C@H]([C@H](O)[C@H](O)CO)O3)[C@H]2O)[C@H]1NC(C)=O)[C@@H](C)O)C(C)C)C(=O)N[C@@H](CC(C)C)C(=O)N[C@@H](CC(N)=O)C(N)=O [VIP-Thr7/ST] |  |  |  | remained (completely) intact after incubation with NEP [1]: 60 min; partially intact after incubation with DPP-IV [2]: 60 min; remained fully intact after/until incubation with DPP-IV [2]: 30 min |
| CC[C@H](C)[C@@H]1NC(=O)[C@H](CCCNC(=N)N)NC(=O)[C@H](CC(=O)O)NC(=O)[C@H](CCSC)NC(=O)[C@H](CCCNC(=N)N)NC(=O)CNC(=O)CNC(=O)[C@H](Cc2ccccc2)NC(=O)[C@@H](NC(=O)[C@H](CO)NC(=O)[C@H](CO)NC(=O)[C@H](CCCNC(=N)N)NC(=O)[C@H](CCCNC(=N)N)NC(=O)[C@H](CC(C)C)NC(=O)[C@@H](N)CO)CSSC[C@@H](C(=O)N[C@@H](CC(N)=O)C(=O)N[C@@H](CO)C(=O)N[C@@H](Cc2ccccc2)C(=O)N[C@@H](CCCNC(=N)N)C(=O)N[C@@H](Cc2ccc(O)cc2)C(=O)O)NC(=O)CNC(=O)[C@H](CC(C)C)NC(=O)CNC(=O)[C@H](CO[C@H]2O[C@H](CO)[C@H](O)[C@H](O[C@@H]3O[C@H](CO)[C@H](O)[C@H](O[C@]4(C(=O)O)C[C@H](O)[C@@H](NC(C)=O)[C@H]([C@H](O)[C@H](O)CO)O4)[C@H]3O)[C@H]2NC(C)=O)NC(=O)[C@H](CCC(N)=O)NC(=O)[C@H](C)NC(=O)CNC1=O [ANP-Ser19/ST] |  |  |  | change in mean arterial pressure (MAP) over the infusion period [3, 5]: decrease; change in plasma cGMP over the infusion period [3, 5]: increase; MAP in the 30 minutes clearance period ([3]; after 60 min infusion): sustained or further reduced; effect on diuresis and natriuresis ([3]; i.v. infusion): did not result in increased diuresis nor natriuresis |
| SLRRSSCFGGRMDRIGAQSGLGCNS(ST)FRY (ends and bridges not checked) [ANP with ST O-glycan at residue 25] | ~20 | 717 |  |  |
| SLRRSSCFGGRMDRIGAQSGLGCNSFRY (not fully specified (residue 19); ends and bridges not checked) [ANP with one O-glycan (GalNAc/Tn) at residue 19] |  |  | ~20 |  |
| SLRRSSCFGGRMDRIGAQS(ST)GLGCNSFRY (ends and bridges not checked) [ANP with ST O-glycan at residue 19] |  | 296 | ~20 |  |
| SLRRSSCFGGRMDRIGAQSGLGCNS(diST)FRY (not fully specified (bridges); ends and bridges not checked) [ANP with diST O-glycan at residue 25] | ~20 |  |  |  |
| SLRRSSCFGGRMDRIGAQSGLGCNSFRY (not fully specified (residue 25); ends and bridges not checked) [ANP with one O-glycan (GalNAc/Tn) at residue 25] | ~20 |  |  |  |
| SLRRSSCFGGRMDRIGAQSGLGCNS(code T)FRY (ends and bridges not checked) [ANP with T O-glycan at residue 25] | ~20 | 265 |  |  |
| SLRRSSCFGGRMDRIGAQS(code T)GLGCNSFRY (ends and bridges not checked) [ANP with T O-glycan at residue 19] |  | 160 | ~20 |  |
| SLRRSSCFGGRMDRIGAQS(diST)GLGCNSFRY (not fully specified (bridges); ends and bridges not checked) [ANP with diST O-glycan at residue 19] |  |  | ~20 |  |
